Test results as given in patent publication US6242195.

Experiments:
[1] = target: CD20 antigen (Homo sapiens (Human)) (UniProt P11836); assay: flow cytometry on WIL2-S cells, EC50 against C2B8 reference
[2] = target: C1q (human) (UniProt P02745); assay: C1q binding ELISA, antibody coated
[3] = target: C1q (human) (UniProt P02745)
[4] = target: CD20 antigen (Homo sapiens (Human)) (UniProt P11836)
[5] = target: C1q (human) (UniProt P02745); assay: C1q binding ELISA, antibody coated, up to 100 µg/ml
[6] = target: FcγRIIIa α subunit ECD-6-His-GST fusion protein (Homo sapiens (Human)) (UniProt P08637); assay: ELISA, E27:chimeric IgE:VEGF complex on coated receptor
[7] = target: FcγRIIb α subunit ECD-6-His-GST fusion protein (Homo sapiens (Human)) (UniProt P31994); assay: as above
[8] = target: FcγRIIa α subunit ECD-6-His-GST fusion protein (Homo sapiens (Human)) (UniProt P12318); assay: as above
[9] = target: FcγRI α subunit-GST fusion (Homo sapiens (Human)) (UniProt P12314); assay: ELISA, monomeric IgG on coated FcγRI α subunit-GST
Sequence of FcγRI α subunit-GST fusion (Homo sapiens (Human)) (P12314 16-292): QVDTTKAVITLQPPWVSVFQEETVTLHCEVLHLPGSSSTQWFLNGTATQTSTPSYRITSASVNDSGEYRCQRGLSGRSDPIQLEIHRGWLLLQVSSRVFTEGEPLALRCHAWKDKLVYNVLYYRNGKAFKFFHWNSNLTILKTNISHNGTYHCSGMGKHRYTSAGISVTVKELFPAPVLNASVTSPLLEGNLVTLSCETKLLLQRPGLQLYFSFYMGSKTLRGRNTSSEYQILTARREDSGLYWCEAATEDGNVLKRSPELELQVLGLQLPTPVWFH

Sequence of FcγRIIIa α subunit ECD-6-His-GST fusion protein (Homo sapiens (Human)) (P08637 17-208): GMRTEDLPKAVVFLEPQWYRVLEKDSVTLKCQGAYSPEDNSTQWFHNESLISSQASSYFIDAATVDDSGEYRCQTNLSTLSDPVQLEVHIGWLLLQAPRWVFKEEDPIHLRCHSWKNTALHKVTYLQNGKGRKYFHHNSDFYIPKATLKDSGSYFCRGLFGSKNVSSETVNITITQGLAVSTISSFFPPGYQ

| CD20 binding, percentage of the wild type (% of wild type) [1] | binding, percentage of the wild type (% of wild type) [6] | binding, percentage of the wild type (% of wild type) [7] | binding, percentage of the wild type (% of wild type) [8] | binding, percentage of the wild type (% of wild type) [9] | Substance | further results |
| --- | --- | --- | --- | --- | --- | --- |
| 89 | – | – | – | – | C2B8 mutant E318A (antibody) | decrease in binding to C1q against wild type C2B8 [2]: 30%; CDC, percentage of the wild type (% of wild type) [3]: 108; CDC, percentage of the wild type (% of wild type) [4]: 108 |
| 102 | – | – | – | – | C2B8 mutant K320A (antibody) | CDC, percentage of the wild type (% of wild type) [3]: 108; CDC, percentage of the wild type (% of wild type) [4]: 108 |
| 112 | – | – | – | – | C2B8 mutant P329A (antibody) | – |
| 103 | – | – | – | – | C2B8 mutant P331A (antibody) | fold lower binding to C1q than wild type C2B8 [5]: 60 fold lower |
| – | 104 | 106 | 113 | 93 | E27 anti-IgE antibody, Fc mutant E318A | – |
| – | 72 | 83 | – | 102 | E27 anti-IgE antibody, Fc mutant K320A | – |
| – | – | 101 | 109 | – | E27 anti-IgE antibody, Fc mutant K322A | – |
| – | 85 | – | – | 104 | E27 anti-IgE antibody, Fc mutant P329A | – |
| – | 73 | 58 | 86 | 74 | E27 anti-IgE antibody, Fc mutant P331A | – |
